From the supplement of paper PMC10065799, “High-throughput profiling of sequence recognition by tyrosine kinases and SH2 domains using bacterial peptide display” (eLife, 2023)

Experiments:
[1] = target: SHP2-C SH2; assay: SH2 binding enrichment of the phosphorylated peptide, bacterial display (enrichment ratio); higher = better substrate or ligand; peptides without Tyr show the background
[2] = target: c-Src SH2; assay: as above
[3] = target: Grb2 SH2 (UniProt P62993); assay: as above
[4] = target: Fes (UniProt P07332); assay: phosphorylation enrichment, bacterial display (enrichment ratio); higher = better substrate or ligand; peptides without Tyr show the background
[5] = target: EPHB1 (UniProt P54762); assay: as above
Chain of EPHB1 (P54762 whole entry, looked up): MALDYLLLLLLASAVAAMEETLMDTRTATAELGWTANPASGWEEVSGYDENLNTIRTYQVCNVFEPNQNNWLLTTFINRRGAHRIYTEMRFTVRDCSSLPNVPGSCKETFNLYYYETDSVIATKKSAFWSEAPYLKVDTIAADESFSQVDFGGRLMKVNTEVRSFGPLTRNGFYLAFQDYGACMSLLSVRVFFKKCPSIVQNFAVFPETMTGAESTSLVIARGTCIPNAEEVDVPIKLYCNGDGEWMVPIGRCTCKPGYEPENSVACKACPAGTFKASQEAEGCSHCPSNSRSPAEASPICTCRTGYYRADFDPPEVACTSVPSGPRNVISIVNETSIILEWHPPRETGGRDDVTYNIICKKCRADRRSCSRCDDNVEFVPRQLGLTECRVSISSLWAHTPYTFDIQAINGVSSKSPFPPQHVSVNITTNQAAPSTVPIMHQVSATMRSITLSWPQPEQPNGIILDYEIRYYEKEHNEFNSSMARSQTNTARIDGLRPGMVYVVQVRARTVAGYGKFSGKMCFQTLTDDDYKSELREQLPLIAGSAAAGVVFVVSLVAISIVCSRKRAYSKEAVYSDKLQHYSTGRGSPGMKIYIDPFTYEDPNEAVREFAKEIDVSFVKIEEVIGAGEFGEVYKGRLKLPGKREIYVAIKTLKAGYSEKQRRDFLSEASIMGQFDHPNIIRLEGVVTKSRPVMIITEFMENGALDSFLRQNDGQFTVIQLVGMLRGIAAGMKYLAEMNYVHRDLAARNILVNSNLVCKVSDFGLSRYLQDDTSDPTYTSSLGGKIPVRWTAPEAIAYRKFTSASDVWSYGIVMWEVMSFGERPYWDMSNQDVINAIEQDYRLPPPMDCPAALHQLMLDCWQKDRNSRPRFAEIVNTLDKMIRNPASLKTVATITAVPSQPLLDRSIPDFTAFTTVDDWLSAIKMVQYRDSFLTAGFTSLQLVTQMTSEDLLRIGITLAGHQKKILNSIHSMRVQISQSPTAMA

[6] = target: EPHB2 (UniProt P29323); assay: as above
[7] = system: AncSZ; assay: as above
[8] = target: FGFR3 (UniProt P22607); assay: as above
[9] = system: Fer (mouse); assay: as above
[10] = target: Fyn (UniProt P06241); assay: as above
Chain of Fyn (P06241 whole entry, looked up): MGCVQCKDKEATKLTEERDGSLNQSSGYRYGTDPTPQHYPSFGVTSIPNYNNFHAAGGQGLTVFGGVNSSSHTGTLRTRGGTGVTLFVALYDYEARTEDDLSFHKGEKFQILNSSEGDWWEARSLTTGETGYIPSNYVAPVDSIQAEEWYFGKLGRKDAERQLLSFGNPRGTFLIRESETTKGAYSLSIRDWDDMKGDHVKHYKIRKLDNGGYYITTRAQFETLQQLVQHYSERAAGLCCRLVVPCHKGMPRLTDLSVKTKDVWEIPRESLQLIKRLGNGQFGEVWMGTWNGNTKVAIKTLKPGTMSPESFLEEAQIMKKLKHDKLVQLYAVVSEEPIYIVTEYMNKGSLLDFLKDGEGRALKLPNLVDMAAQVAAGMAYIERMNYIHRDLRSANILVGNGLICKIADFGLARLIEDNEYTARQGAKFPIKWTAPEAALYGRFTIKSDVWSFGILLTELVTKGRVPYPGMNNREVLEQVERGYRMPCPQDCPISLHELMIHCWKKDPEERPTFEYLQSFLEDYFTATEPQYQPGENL

[11] = target: MERTK (UniProt Q12866); assay: as above
Chain of MERTK (Q12866 whole entry, looked up): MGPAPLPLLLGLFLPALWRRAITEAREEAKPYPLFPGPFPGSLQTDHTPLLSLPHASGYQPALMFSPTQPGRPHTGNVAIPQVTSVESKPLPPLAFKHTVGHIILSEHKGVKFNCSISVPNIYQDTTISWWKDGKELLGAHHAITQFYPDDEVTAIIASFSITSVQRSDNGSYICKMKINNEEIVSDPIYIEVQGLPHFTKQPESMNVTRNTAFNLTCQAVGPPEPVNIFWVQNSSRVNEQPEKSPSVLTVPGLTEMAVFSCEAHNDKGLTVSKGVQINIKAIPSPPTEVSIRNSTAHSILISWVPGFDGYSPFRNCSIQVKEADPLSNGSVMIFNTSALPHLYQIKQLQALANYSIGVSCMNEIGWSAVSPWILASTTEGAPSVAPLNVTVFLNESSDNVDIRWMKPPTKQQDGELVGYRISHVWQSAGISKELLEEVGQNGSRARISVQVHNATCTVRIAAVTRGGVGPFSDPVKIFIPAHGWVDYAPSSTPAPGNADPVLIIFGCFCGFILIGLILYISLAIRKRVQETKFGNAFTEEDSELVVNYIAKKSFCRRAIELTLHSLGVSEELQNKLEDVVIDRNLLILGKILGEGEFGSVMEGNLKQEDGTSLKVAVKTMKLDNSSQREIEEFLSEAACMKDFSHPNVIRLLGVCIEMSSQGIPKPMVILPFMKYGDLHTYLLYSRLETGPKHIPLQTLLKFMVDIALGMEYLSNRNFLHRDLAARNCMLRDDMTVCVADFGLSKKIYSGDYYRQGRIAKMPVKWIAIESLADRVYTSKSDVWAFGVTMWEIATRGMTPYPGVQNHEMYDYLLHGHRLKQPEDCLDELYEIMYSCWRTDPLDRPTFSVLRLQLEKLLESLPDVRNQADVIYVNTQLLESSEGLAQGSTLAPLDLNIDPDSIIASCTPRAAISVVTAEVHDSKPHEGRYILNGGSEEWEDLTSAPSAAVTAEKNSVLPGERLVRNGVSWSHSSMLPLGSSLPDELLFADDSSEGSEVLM

[12] = system: c-Abl (mouse); assay: as above
[13] = target: Hck (UniProt P08631); assay: as above
Chain of Hck (P08631 whole entry, looked up): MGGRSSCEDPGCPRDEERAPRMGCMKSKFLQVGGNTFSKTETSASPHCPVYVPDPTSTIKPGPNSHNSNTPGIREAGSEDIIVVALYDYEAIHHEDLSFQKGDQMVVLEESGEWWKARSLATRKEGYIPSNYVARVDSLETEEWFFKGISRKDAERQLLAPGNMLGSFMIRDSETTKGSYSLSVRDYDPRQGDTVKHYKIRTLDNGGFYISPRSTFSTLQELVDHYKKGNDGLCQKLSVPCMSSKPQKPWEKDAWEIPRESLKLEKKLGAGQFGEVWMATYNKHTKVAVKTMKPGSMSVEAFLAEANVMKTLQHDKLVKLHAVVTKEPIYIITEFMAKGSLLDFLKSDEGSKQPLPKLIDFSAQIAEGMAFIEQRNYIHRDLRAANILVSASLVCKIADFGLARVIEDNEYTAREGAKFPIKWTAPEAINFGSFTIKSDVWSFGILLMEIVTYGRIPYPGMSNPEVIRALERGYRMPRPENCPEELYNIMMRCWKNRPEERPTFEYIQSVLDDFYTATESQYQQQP

[14] = target: Jak2 (UniProt O60674); assay: as above
Chain of Jak2 (O60674 whole entry, looked up): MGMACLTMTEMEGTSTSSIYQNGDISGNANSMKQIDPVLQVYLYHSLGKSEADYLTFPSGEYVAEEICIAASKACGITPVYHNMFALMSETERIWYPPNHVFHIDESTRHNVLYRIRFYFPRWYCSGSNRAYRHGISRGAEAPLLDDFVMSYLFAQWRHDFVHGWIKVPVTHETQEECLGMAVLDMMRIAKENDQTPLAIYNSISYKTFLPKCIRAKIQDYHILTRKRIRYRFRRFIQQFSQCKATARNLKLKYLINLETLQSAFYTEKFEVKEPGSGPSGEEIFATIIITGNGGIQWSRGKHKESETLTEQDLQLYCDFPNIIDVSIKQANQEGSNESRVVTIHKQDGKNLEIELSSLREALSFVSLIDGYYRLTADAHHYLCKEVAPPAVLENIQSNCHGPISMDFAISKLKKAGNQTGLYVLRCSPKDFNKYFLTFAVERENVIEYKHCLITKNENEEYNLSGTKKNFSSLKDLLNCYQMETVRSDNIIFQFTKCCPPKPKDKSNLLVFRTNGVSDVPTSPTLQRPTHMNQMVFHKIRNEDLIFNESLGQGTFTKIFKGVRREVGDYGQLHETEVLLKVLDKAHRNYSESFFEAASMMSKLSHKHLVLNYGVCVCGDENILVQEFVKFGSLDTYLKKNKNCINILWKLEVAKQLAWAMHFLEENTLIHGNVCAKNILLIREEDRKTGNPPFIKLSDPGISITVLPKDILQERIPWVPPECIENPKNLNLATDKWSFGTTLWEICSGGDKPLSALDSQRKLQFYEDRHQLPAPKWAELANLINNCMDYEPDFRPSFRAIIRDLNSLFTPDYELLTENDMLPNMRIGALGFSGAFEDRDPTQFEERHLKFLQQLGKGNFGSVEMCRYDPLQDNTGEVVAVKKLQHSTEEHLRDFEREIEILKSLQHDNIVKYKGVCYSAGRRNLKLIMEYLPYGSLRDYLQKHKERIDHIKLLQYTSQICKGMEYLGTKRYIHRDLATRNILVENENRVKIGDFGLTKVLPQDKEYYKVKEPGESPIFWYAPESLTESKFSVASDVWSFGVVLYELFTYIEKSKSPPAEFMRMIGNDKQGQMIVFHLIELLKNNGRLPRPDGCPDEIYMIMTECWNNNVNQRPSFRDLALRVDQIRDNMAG

[15] = system: c-Src; assay: as above
[16] = target: FGFR1 (UniProt P11362); assay: as above
Chain of FGFR1 (P11362 whole entry, looked up, the tested form may be a part): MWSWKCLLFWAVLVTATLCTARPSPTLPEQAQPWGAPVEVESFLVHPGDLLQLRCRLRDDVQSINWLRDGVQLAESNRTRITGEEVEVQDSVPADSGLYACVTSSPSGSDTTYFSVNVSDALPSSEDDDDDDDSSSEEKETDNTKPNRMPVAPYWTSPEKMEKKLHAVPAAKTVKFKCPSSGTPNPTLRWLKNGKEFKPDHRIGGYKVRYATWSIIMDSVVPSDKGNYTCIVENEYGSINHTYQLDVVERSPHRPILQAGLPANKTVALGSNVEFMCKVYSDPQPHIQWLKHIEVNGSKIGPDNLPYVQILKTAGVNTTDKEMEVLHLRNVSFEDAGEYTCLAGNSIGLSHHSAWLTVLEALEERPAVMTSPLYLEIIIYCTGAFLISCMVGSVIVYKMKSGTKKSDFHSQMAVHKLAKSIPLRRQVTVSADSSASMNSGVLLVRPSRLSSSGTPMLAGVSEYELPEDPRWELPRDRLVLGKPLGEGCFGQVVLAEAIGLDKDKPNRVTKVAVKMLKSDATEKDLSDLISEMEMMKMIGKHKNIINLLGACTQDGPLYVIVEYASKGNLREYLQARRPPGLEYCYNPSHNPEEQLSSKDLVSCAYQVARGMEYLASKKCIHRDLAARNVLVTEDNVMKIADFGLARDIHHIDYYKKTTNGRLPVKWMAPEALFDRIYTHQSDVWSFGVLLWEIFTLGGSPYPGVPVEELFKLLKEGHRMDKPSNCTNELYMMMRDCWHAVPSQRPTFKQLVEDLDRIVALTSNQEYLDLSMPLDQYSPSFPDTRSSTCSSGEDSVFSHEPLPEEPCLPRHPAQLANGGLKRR
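Throughout, for SH2 binding enrichment of the phosphorylated peptide, bacterial display: peptide library displayed on the E. coli surface as eCPX fusions, selected cells deep-sequenced, score is each peptide's frequency after selection divided by its frequency in the input.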
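Throughout, for phosphorylation enrichment, bacterial display: 11-residue human phosphosite peptides and single-mutation variants displayed on the E. coli surface, counted by deep sequencing, each peptide's frequency after selection divided by its frequency in the unselected input library; frequency after pTyr selection over input frequency; kinase dosed for 20-30% of maximal phosphorylation in three min.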

| Sequence | SH2 binding enrichment [1] | SH2 binding enrichment [2] | SH2 binding enrichment [3] | phosphorylation enrichment [4] | phosphorylation enrichment [5] | phosphorylation enrichment [6] | phosphorylation enrichment [7] | phosphorylation enrichment [8] | phosphorylation enrichment [9] | phosphorylation enrichment [10] | phosphorylation enrichment [11] | phosphorylation enrichment [12] | phosphorylation enrichment [13] | phosphorylation enrichment [14] | phosphorylation enrichment [15] | phosphorylation enrichment [16] |
| --- | --- | --- | --- | --- | --- | --- | --- | --- | --- | --- | --- | --- | --- | --- | --- | --- |
| QKLPLYILENN [VPS13B_Y2774_S2773L] | 0.802 | 0.642 | 0.746 | 1.28 | 0.942 | 0.607 | 0.967 | 0.761 | 0.551 | 0.556 | 0.758 | 1 | 0.709 | 1.06 | 0.964 | 0.81 |
| PYSEPYADYGG [APBA1_Y187] | 0.651 | 6.47 | 0.675 | 1.72 | 1.04 | 1.18 | 2.11 | 2.23 | 1.34 | 1.89 | 0.911 | 1.03 | 1.41 | 1.56 | 4.44 | 3.21 |
| RGRSTYFWPRP [GAGE12J_Y9_YF] | 0.704 | 0.489 | 0.456 | 1.02 | 0.875 | 0.652 | 1.15 | 1.06 | 1.11 | 0.641 | 1.3 | 1.17 | 0.636 | 0.838 | 0.999 | 0.93 |
| RNGDRYFKGIV [DCX_Y64] | 0.714 | 0.548 | 0.995 | 0.632 | 0.335 | 0.619 | 0.709 | 0.483 | 0.549 | 0.665 | 0.433 | 0.664 | 0.419 | 0.626 | 0.455 | 0.444 |
| MSRLKYPVSQQ [BTK_Y375_I370M] | 0.78 | 0.608 | 1.03 | 0.706 | 0.413 | 0.741 | 0.573 | 0.621 | 0.375 | 0.473 | 0.478 | 0.573 | 0.435 | 0.54 | 0.491 | 0.434 |
| QDDTVYMGKVI [DCTN1_Y1244_T1249I] | 0.427 | 0.389 | 1.05 | 1.72 | 0.873 | 0.841 | 1.72 | 0.938 | 0.943 | 1.45 | 0.765 | 2.06 | 1.33 | 1.57 | 0.942 | 0.913 |
| HLVSEYQQYQD [TUBB3_Y422_D417H] | 0.605 | 1.02 | 0.956 | 1.61 | 1.07 | 1.11 | 1.78 | 1.05 | 0.72 | 0.652 | 0.482 | 0.98 | 1.21 | 1.29 | 0.939 | 0.868 |
| EALDFYGEVRI [PTEN_Y155_T160I] | 0.567 | 0.499 | 1.09 | 1.73 | 0.871 | 0.614 | 1.49 | 1.1 | 1.55 | 1.64 | 0.494 | 1.11 | 1.13 | 2.03 | 1.44 | 0.538 |
| RRNTFYASIAK [ACADM_Y353_YF] | 1.68 | 1.09 | 0.772 | 0.622 | 0.453 | 0.455 | 0.605 | 0.583 | 0.367 | 0.482 | 0.474 | 0.509 | 0.463 | 0.511 | 0.638 | 0.442 |
| VLALWYFFLTN [ZDHHC23_Y127_H132N_YF] | 1.03 | 0.985 | 0.936 | 1.68 | 0.746 | 0.63 | 1.16 | 1.94 | 0.595 | 0.535 | 0.963 | 0.904 | 0.62 | 1.91 | 0.654 | 2.05 |
| FYVVRYCWLRR [MPZ_Y181] | 0.565 | 0.545 | 0.761 | 0.747 | 0.496 | 0.508 | 0.869 | 0.614 | 0.51 | 0.62 | 0.604 | 0.758 | 0.567 | 0.596 | 0.612 | 0.595 |
| DLDTEYGSGFP [RNASEH2A_Y206_D205E_YF] | 0.622 | 0.429 | 1.06 | 1.34 | 0.676 | 0.642 | 1.55 | 0.958 | 0.799 | 0.744 | 0.469 | 1.27 | 0.654 | 1.39 | 0.825 | 0.622 |
| KVGPGYLGSRG [RET_Y826_G830R] | 0.769 | 0.588 | 1 | 0.55 | 0.302 | 0.345 | 0.402 | 0.339 | 0.328 | 0.329 | 0.457 | 0.444 | 0.327 | 0.439 | 0.366 | 0.318 |
| VMLENYSNLVS [ZFP69_Y109] | 0.555 | 0.669 | 0.851 | 0.781 | 1.49 | 1.24 | 0.819 | 0.608 | 0.556 | 0.563 | 0.375 | 0.39 | 0.49 | 0.49 | 0.363 | 0.654 |
| VAMDDYLKNVV [LRRK2_Y707_M712V] | 0.648 | 0.573 | 0.828 | 0.919 | 0.482 | 0.59 | 0.872 | 0.666 | 0.405 | 0.364 | 0.393 | 0.518 | 0.477 | 0.708 | 0.376 | 0.468 |
| KSPDSYQKILF [ATM_Y1415_L1420F] | 1.75 | 1.96 | 1.26 | 0.517 | 0.468 | 0.464 | 0.567 | 0.427 | 0.338 | 0.484 | 0.585 | 0.511 | 0.406 | 0.6 | 0.632 | 0.509 |
| GHGEEYPAAGA [NOTCH3_Y2221] | 0.626 | 0.384 | 0.888 | 0.821 | 0.41 | 0.327 | 0.682 | 0.719 | 0.433 | 0.426 | 0.379 | 0.469 | 0.431 | 0.549 | 0.377 | 0.413 |

| Sequence | SH2 binding enrichment [1] | SH2 binding enrichment [2] | SH2 binding enrichment [3] | phosphorylation enrichment [4] | phosphorylation enrichment [5] | phosphorylation enrichment [6] | phosphorylation enrichment [7] | phosphorylation enrichment [8] | phosphorylation enrichment [9] | phosphorylation enrichment [10] | phosphorylation enrichment [11] | phosphorylation enrichment [12] | phosphorylation enrichment [13] | phosphorylation enrichment [14] | phosphorylation enrichment [15] | phosphorylation enrichment [16] |
| --- | --- | --- | --- | --- | --- | --- | --- | --- | --- | --- | --- | --- | --- | --- | --- | --- |
| EPGNLYIAKVE [CNTN4_Y180_T176P] | 0.553 | 0.405 | 0.788 | 1.09 | 0.454 | 0.482 | 0.833 | 0.605 | 0.408 | 0.386 | 0.347 | 0.665 | 0.502 | 0.898 | 0.439 | 0.435 |
| LNEVGYDDIGG [VCP_Y203] | 1.04 | 12.2 | 0.974 | 2.47 | 1.4 | 1.04 | 1.42 | 1.72 | 0.861 | 1.15 | 0.827 | 1.09 | 1.36 | 1.9 | 0.812 | 1.07 |
| DGKYSYLKVGH [GRM3_Y480_G475D] | 1.45 | 4.12 | 1.05 | 0.623 | 0.303 | 0.297 | 0.442 | 0.427 | 0.372 | 0.372 | 0.44 | 0.284 | 0.455 | 0.437 | 0.352 | 0.38 |
| HKLSFCEFDFE [BTK_Y40_Y40C_YF] | 0.937 | 0.622 | 1.11 | 3.4 | 0.934 | 0.787 | 3.33 | 1.34 | 0.965 | 0.764 | 0.776 | 1.78 | 0.83 | 2.48 | 1.03 | 0.844 |
| RSACTYLAPHL [PLK3_Y615_S618P] | 0.648 | 0.562 | 0.876 | 1.02 | 1.88 | 1.25 | 2.67 | 0.71 | 0.589 | 1.1 | 1.02 | 6.67 | 1.45 | 1.59 | 2.74 | 0.691 |
| YVSSFYHAFSG [ACTN4_Y265] | 1.79 | 2.2 | 1.2 | 0.884 | 2.21 | 1.41 | 1.04 | 2.32 | 0.564 | 2.76 | 8.9 | 1.28 | 2.82 | 0.895 | 3.68 | 3.31 |
| FGLTLYPNSRE [MEP1A_Y472_V469L] | 0.893 | 0.661 | 1.12 | 1.09 | 0.55 | 0.56 | 0.911 | 0.698 | 0.413 | 0.471 | 0.385 | 0.629 | 0.397 | 0.68 | 0.394 | 0.682 |
| HAVVDYMRRQK [ATM_Y1915_L1910H] | 0.364 | 0.381 | 0.6 | 1.14 | 0.701 | 1.03 | 1.16 | 1 | 0.535 | 0.634 | 0.654 | 0.595 | 0.694 | 0.892 | 0.539 | 0.799 |
| GLAELYEYKKK [CKAP5_Y1854] | 1.31 | 0.671 | 1.26 | 0.719 | 0.479 | 0.397 | 0.671 | 0.546 | 0.32 | 0.569 | 0.303 | 0.464 | 0.924 | 0.393 | 0.489 | 0.7 |
| YHIDHYLGKEM [G6PD_Y202_R198H] | 0.664 | 0.573 | 1.09 | 0.674 | 0.437 | 0.505 | 0.599 | 0.667 | 0.478 | 0.482 | 0.438 | 0.58 | 0.474 | 0.476 | 0.546 | 0.673 |
| HIKHNYECLVY [XRCC5_Y416] | 0.693 | 5.15 | 0.772 | 1.05 | 2.87 | 2.44 | 1.05 | 0.839 | 0.514 | 0.868 | 0.548 | 0.882 | 0.638 | 0.935 | 1.78 | 0.924 |
| RLRKFYLGKFL [KLB_Y906_YF] | 0.549 | 0.444 | 0.679 | 0.624 | 0.393 | 0.462 | 0.631 | 0.64 | 0.468 | 0.689 | 0.645 | 0.719 | 0.654 | 0.608 | 0.707 | 0.669 |
| FNDSAYNQQLI [ZPLD1_Y198_T197A_YF] | 0.423 | 0.431 | 0.705 | 0.672 | 0.489 | 0.383 | 0.641 | 0.451 | 0.326 | 0.393 | 0.297 | 0.485 | 0.455 | 0.5 | 0.421 | 0.338 |
| KAIDMYLMGCF [GABRB2_Y308] | 0.648 | 0.44 | 0.823 | 1.21 | 0.566 | 0.551 | 1.27 | 1.04 | 0.486 | 0.515 | 0.425 | 1.06 | 0.535 | 1.04 | 0.75 | 0.504 |
| IQVNAYFSPIH [ADSL_Y432_D430N] | 1.34 | 0.959 | 0.964 | 1.29 | 0.727 | 0.536 | 1.76 | 0.795 | 0.548 | 0.431 | 0.589 | 1.14 | 0.543 | 2.16 | 0.543 | 0.595 |
| FADIAYIYRHG [PAH_Y166_N167I] | 1.06 | 0.695 | 0.936 | 0.978 | 0.506 | 0.497 | 0.842 | 0.583 | 0.486 | 0.432 | 0.416 | 0.685 | 0.445 | 1.02 | 0.638 | 0.616 |
